Data on one molecule can be found in US20210170043A1, “DC-SIGN ANTIBODY CONJUGATES COMPRISING STING AGONISTS” (NOVARTIS AG, priority 2018, published 2021).

Type in all cases: in vivo, mouse
In test [1] the test system is tumor and splenic immune cells. Nature of the test: Flow cytometry of spleen and tumor immune cells in tumor-bearing DC-SIGN transgenic mice (PDL1, T cell infiltration and activation). Particulars: Tg+ mice. The text has this: FIGS. 19A-19B show exemplary data on DC-SIGN immunoconjugates inducing upregulation of surface PDL1.
FIGS. 20A-20F show exemplary data on DC-SIGN immunoconjugates enhancing tumor T cell infiltration and T cell activation.
A general note: Flow cytometry measures light scatter and fluorescence of single cells or particles in a stream.

A further test has as its system MC38 tumor cells. Kind of test: Flow cytometry of tumors and spleens of MC38 tumor-bearing mice (PDL1, T cell infiltration). Particulars: Tg+ mice. The method, then:
Spleens and tumors were analyzed 24 hours post dose by flow cytometry for PDL1 expression.
The effect of DC-SIGN immunoconjugate on tumor T cell infiltration was also evaluated. […] Mice After the mice were sacrificed 7 days after dosing, tumors were analyzed for T cell infiltration and activation by flow cytometry.
Tumors and/or spleens were extracted at the timepoints indicated from animals. Spleens were processed into a single cell suspension using glass slides and passed through a 100 micron mesh filter. Spleens were lysed in 1 mL of ACK lysis buffer (Life Technologies) for 5 minutes at room temperature. After lysis, cells were pelleted and resuspended in complete RMPI medium (RPMI Media 1640 with 10 percent fetal bovine serum (FBS), 0.05 mM 2-mercaptoethanol, 1 percent Penicillin-Streptomycin-Glutamine, 1 percent non-essential amino acids, 1 percent HEPES, 1 percent sodium pyruvate (all media reagents from Thermo Fisher). Tumors were extracted and put into digestion media in gentleMACS C tubes. Digestion media consists of Dulbecco's Modified Eagle Medium with 0.04 U/mL Dispase (StemCell Technologies), 0.1 mg/mL Collagenase P (Sigma) and 0.1 mg/mL DNase (Sigma). Tumors were incubated with in digestion media and then processed using the gentleMACS Dissociator (Miltenyi Biotec Inc, San Diego, Calif.) to obtain a single cell suspension. After processing, cells were filtered in […] filters (Miltenyi Biotec Inc).
1-2 million cells for each sample were then stained with a cocktail of antibodies to determine impact of the treatments on dendritic cells, myeloid cells and T cells. For FACS analysis, cells were stained with a fixable, amine reactive dye to label dead cells (Zombie UV™ fixable viability kit, Biolegend) in PBS. For antibody staining, indicated antibodies (see table below) were diluted in PBS with 0.5% Bovine serum albumin (BSA, from Sigma). Samples were incubated at 4° C. for 30 minutes and then washed 2 times with PBS with 0.5% BSA. Cells were fixed with stabilizing fixative (BD). For intracellular analysis of FoxP3 to evaluate T regulatory cells, cells were fixed and permeabilized with the FoxP3 transcription factor kit according to manufacturer's recommendations (Thermo Fisher). Cells were then stained with FoxP3 clone FJK-16s (Thermo Fisher). After staining, cells were evaluated on the BD LSRFortessa™ cell analyzer (BD Biosciences, San Jose, Calif.).
T cells were identified as CD3+ MHCII− cells. CD8+ T cells and CD4+ T cells were further defined as CD8 and CD4 positive, respectively. Tregs were identified from CD4+ T cells as being FoxP3+.
Dendritic cells were identified as MHCII high CD11c high cells and further gated on expression of CD8 and CD11 b to identify CD8+DC subsets and CD11b+ DCs where noted. Monocytic myeloid derived suppressor cells were identified as CD45+ cells in tumors that express CD11b, MHCII, F4/80, Ly6C and are intermediate for Ly6G.

In test [2] the test system is transgenic mice expressing human DC-SIGN gene (Tg+). Kind of test: Plasma cytokine and chemokine levels in human DC-SIGN transgenic mice. Particulars: 6 hours post dose. The method, then: Blood was collected at 6 hours post dose to analyze plasma cytokine and chemokine levels and spleens were analyzed at 24 hours post dose to look at dendritic cell activation.
Mice were bled 6 hours after dosing to collect plasma for analysis of circulating cytokine levels.
Plasma was collected at indicated timepoints and analyzed with a Mouse IP-10 Platinum ELISA kit (eBioscience Affymetrix). Plasma was diluted 1:100 and the protocol was followed according to the manufacturer's recommendations. Data was collected using an Enspire spectro-photometer using […] as the primary wavelength.
Plasma was collected at indicated timepoints and analyzed with a Mouse IFN-beta ELISA kit (R&D Systems) according to the manufacturer's recommendations. Data was collected using an Enspire spectro-photometer using […] as the primary wavelength.
Plasma was collected at indicated timepoints and analyzed with a mouse Proinflammatory Panel 1 (mouse) Kit V-PLEX™ 10 plex from MesoScale Discovery. 25 μL of plasma per sample was used and protocol was followed according to the manufacturer's recommendations. Data were collected and analyzed using a Sector Imager 6000.
Human DC-SIGN transgenic mice (Tg+) (Schaefer et al., J. Immunol. (2008) 180 (10) 6836-6845) were bred to Signr1 deficient mice (−/− or KO) (Orr et al., Glycobiology (2013) 23(3): 363-380). Human DC-SIGN expression was checked using PCR to genotype the mice. Human DC-SIGN Tg+ Signr1−/− mice or human DC-SIGN Tg− Signr1−/− mice were tested with compounds as indicated in the above examples.

[3] abbreviates: MC38, 1 mg/kg, 24 hours post dose.

B1: 2B2 (DAPA) C1 (conjugate)
heavy: QVQLVQSGAEVKKPGASVKVSCKASGYTFTNYGINWVRQAPGQRLEWMGYIYIGNDYTEYNERFKGRVTITSDTSASTAYMELSSLRSEDTAVYYCARLYYGSSLYSYAMDYWGQGTTVTVSSASTKGPSVFPLAPSSKSTSGGTAALGCLVKDYFPCPVTVSWNSGALTSGVHTFPAVLQSSGLYSLSSVVTVPSSSLGTQTYICNVNHKPSNTKVDKRVEPKSCDKTHTCPPCPAPELLGGPSVFLFPPKPKDTLMISRTPEVTCVVVAVSHEDPEVKFNWYVDGVEVHNAKTKPREEQYNSTYRVVSVLTVLHQDWLNGKEYKCKVSNKALAAPIEKTISKAKGQPREPQVYTLPPSREEMTKNQVSLTCLVKGFYPCDIAVEWESNGQPENNYKTTPPVLDSDGSFFLYSKLTVDKSRWQQGNVFSCSVMHEALHNHYTQKSLSLSPGK
light: DIVMTQSPLSLPVTPGEPASISCRSSKSLLHSSGNTYLYWFLQKPGQSPQLLISRMSNLASGVPDRFSGSGSGTDFTLKISRVEAEDVGVYYCMQHLEYPYTFGGGTKVEIKRTVAAPSVFIFPPSDEQLKSGTASVVCLLNNFYPREAKVQWKVDNALQSGNSQESVTEQDSKDSTYSLSSTLTLSKADYEKHKVYACEVTHQGLSSPVTKSFNRGEC
In the case of B1, in test [1] (1 mg/kg), the “surface PDL1 on splenic CD11c high dendritic cells” value is on record as “significant upregulation”; the “surface PDL1 on tumor resident dendritic cells and mMDSCs” value is given as “significant upregulation”. The “CD3+ T cells in tumor” value in test [1] (24 and 48 hours post dosing) is on record as “Increased”. Further, the “T cell activation as measured by CD69 upregulation on CD4 and CD8 T cells in tumors” value in test [1] (24 hours post dose) is given as “Enhanced T cell activation”. Also, in test [1] (day 7 post dose), the “CD8+ T cells in tumors” value was “significant increase” and the “FoxP3+ T regulatory cells in tumors” value is listed as “significant decrease”. Further, the “infiltration of CD8 T cells in tumors” value in test [1] (in combination with anti-PDL1) is recorded as “enhanced infiltration of CD8 T cells”. Besides, in the test on MC38 tumor cells (setting [3]), the “surface PDL1 on splenic CD11c high dendritic cells” value is listed as “significant upregulation of surface PDL1”; the “surface PDL1 on tumor resident dendritic cells and mMDSCs” value is reported as “significant upregulation of surface PDL1”. The “tumor CD3+ T cells” value in the test on MC38 tumor cells (MC38, 1 mpk, 24 and 48 hours post dosing) is on record as “increased CD3+ T cells”. The “T cell activation as measured by CD69 upregulation on tumor CD4 and CD8 T cells” value with MC38 tumor cells (MC38, 1 mpk, 24 hours post dose) is “Enhanced T cell activation”. In the test with MC38 tumor cells (MC38, 1 mpk, day 7 post dose), the “tumor CD8+ T cells” value is recorded as “significant increase in CD8+ T cells” and the “tumor FoxP3+ T regulatory cells” value is reported as “significant decrease in FoxP3+T regulatory cells”. Also, the “tumor infiltration of CD8 T cells, combination with anti-PDL1” value in the test with MC38 tumor cells (MC38, conjugate plus anti-PDL1 clone 10F.9G2, 7 days after dosing) was “enhanced infiltration of CD8 T cells”. The “plasma IL-12p70” value in test [2] (1 mg/kg i.v. (Fab2 1.33 mg/kg)) is “increased”. In addition, in test [2] (1 mg/kg i.v. (Fab2 1.33 mg/kg, Fab 1.3 mg/kg)), the “plasma IP-10” value is on record as “increased”. Besides, in test [2] (1 mg/kg i.v.), the “plasma TNFα” value is “increased”.
